As usually defined, the tissue uptake is the percentage of the injected dose found per gram of tissue. Broadly, the Kd is the equilibrium constant for the complex coming apart. A low value points to higher affinity.

Consider 3 compounds from PMC9506113 (Pharmaceuticals, 2022).

Entries after “also recorded” stand apart in the source; their conditions may differ. Bridge positions count the residues as written; N and C are the ends. Square brackets hold non-standard residues; d marks the D form. Peptide text beside a SMILES is read from it. * marks the point of attachment. DOTA = O=C(O)CN1CCN(CC(=O)O)CCN(CC(=O)*)CCN(CC(=O)O)CC1; dPhe(4-NHCONH2) = NC(=O)Nc1ccc(C[C@@H](N)C(=O)O)cc1; Dihydroorotyl(S) = O=C1C[C@@H](C(=O)*)NC(=O)N1; Phe(4-Cl) = N[C@@H](Cc1ccc(Cl)cc1)C(=O)O; Phe(4-NH2) = Nc1ccc(C[C@H](N)C(=O)O)cc1

One data set in a line: in vivo. The note with it: female, Swiss Nude-Foxn1nu, mouse, in vivo, iv, total radioactivity. The protocol: (§1) Healthy female Swiss Nude-Foxn1nu mice, of 7 weeks old, were obtained from Charles River (Ecully, France). The animals were housed and cared for according to French and European regulations on animal experimentation. All procedures with animals were submitted to the Institutional Animal Care and Use Committee of Oncodesign (CNREEA Agreement N°91). Animal physical well-being was monitored on a daily basis, and animal weight was measured at least twice a week. Tumours were induced by subcutaneously injecting 1 × 10^7 AR42J cells in 200 μL of RPMI 1640 into the right flank of the mice. In order to improve cell engraftment, AR42J tumour cell implantation was performed 72 h after whole-body irradiation with a γ-source (2 Gy 60Co; BioMep, Bretenières, France).
(§2) All test substances, including the mixture of radiolabelling buffer and 0.9% NaCl solution administered in the vehicle group, were intravenously injected into the caudal vein once a week for 4 consecutive weeks. The treatment schedule was determined by the growth kinetics of the AR42J tumour model. The day of randomisation was considered as day 0. […] Tumour growth delay was estimated by calculating the median time taken to reach a tumour volume of 850 mm^3. Animals were sacrificed once their tumour volume exceeded 1500 mm^3. The study was stopped on day 83 because only 1 and 3 animals remained with non-progressing tumours in groups 3 and 4, respectively.
(§3) Twelve mice (3 in each group) were sacrificed at 96 h after the fourth administration of the test substances to evaluate at the same time toxicity and haematological parameters, and radioactivity uptake in tumours and organs after 4 cycles. The remaining 50 mice (10 in both groups 1 and 4, and 15 in both groups 2 and 3) were either sacrificed for ethical reasons on the last day of the study, on day 83. At 96 h, following the last treatment administration, individual tumours and organs of interest were collected, blotted dry, weighted, fixed in formalin, and the amount of radioactivity present in each organ was quantified using a γ-counter. The radioactivity uptake in tumour and organs was determined and expressed as MBq/g of tissue as well as percentage injected dose/g of tissue (%ID/g).

For data set [1], the system named is AR42J pancreatic tumour-bearing mice. As to the kind of experiment: In vivo biodistribution (radioactivity uptake in tumour and organs). Particulars: for Tumour radioactivity uptake / Femur radioactivity uptake / Spleen radioactivity uptake / Adrenals radioactivity uptake / Kidneys radioactivity uptake / Tail radioactivity uptake: 96 h after fourth injection, mean; for Tumour radioactivity uptake: SST2 expression High; for Femur radioactivity uptake / Spleen radioactivity uptake: SST2 expression Minimal; for Adrenals radioactivity uptake: SST2 expression Moderate; for Kidneys radioactivity uptake / Tail radioactivity uptake: SST2 expression None; for Correlation of radioactivity uptake with SST2 expression levels in organs: except in the kidneys. The protocol: as §1, §2, §3

Another data set relates to kidney. The note with it: human, in vivo; cited from earlier work.
In data set [2] the target is T1, SST2 (AR42J rat pancreatic tumour membranes) (Rattus norvegicus, UniProt P30680).
T1 construct: which is not the case for the AR42J model endogenously expressing SST2; host or cells: AR42J rat acinar pancreatic tumour cell line (membrane preparation)
T1 sequence (P30680 whole entry): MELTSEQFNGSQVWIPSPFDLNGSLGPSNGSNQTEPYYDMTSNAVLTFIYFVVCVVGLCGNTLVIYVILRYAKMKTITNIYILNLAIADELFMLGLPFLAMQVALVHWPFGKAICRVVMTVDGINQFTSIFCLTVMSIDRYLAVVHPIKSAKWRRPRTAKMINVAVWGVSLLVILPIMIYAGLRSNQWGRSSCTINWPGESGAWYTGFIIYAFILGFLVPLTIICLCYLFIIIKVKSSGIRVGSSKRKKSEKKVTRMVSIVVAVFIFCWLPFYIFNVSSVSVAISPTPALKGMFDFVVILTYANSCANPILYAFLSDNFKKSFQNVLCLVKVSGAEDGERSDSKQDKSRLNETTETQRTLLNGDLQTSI
Description: Saturation binding assay on AR42J cell membranes. Particulars: AR42J cell membrane suspension 10 µg/well; radioligand 0.075-10 nM; one-site binding model; γ-counter; mean ± SEM. The procedure:
The SST2-expressing AR42J, acinar pancreatic tumour cell line derived from a transplantable tumour of a rat exocrine pancreas, was provided by ATCC (LGC Standards, Molsheim, France). Cells were cultured in RPMI 1640 medium (Dutscher, Bernolsheim, France), supplemented with 10% foetal calf serum (PAN-Biotech, Aidenbach, Germany), in a humidified atmosphere at 37 °C with 5% CO2. AR42J membranes were obtained by sonication in 50 mM Tris–HCl, pH 7.4, and centrifugation at 39,000× g for 10 min at 4 °C. The pellet was resuspended in the same buffer and centrifuged at 50,000 ×g for 10 min at 4 °C, and membranes in the resulting pellet were stored at −80 °C until further use.
Saturation binding assays were performed in vitro using AR42J cell membrane suspension (10 µg/well) incubated with increased concentrations (ranging between 0.075 and 10 nM) of the radioligand. […] Membrane-bound radio-peptide was counted in a γ-counter (COBRA 5003, Packard Instruments). The number of binding sites per cell was calculated and fitted to a one-site binding model in GraphPad Prism 8 to determine the dissociation constant (KD) and the number of binding sites (Bmax).

For the next data set, the system named is SST2-positive NETs. The note with it: in vivo; cited from earlier work.
In data set [3] the test system is bone marrow, spleen, kidneys and other organs. Description: Histopathology of normal organs (treatment-related microscopic observations). It is filed as in vivo, Swiss Nude-Foxn1nu mice. The note with it: for Spleen, extramedullary haematopoiesis, mean score: vehicle 3.7; for Bone marrow, eosinophilic vacuolated cells, number of mice: vehicle 0. The procedure: Once fixed, tumours, spleen, bone marrow (femur), jejunum, colon, tail (injection site), and kidneys were processed to paraffin blocks and tissues slides produced for immunohistochemical analyses or stained with haematoxylin and eosin (H&E) or sirius red (collagen staining) for histopathological examination.
All the slides were evaluated by a board-certified veterinary pathologist (S.L.) using a light microscope (Olympus BX41). The pH2AX and SST2 signal intensities were scored using a semi-quantitative approach (H-score), by multiplying the signal intensity score (0, absent; 1, weak; 2, moderate; 3, strong) with the percentage of labelled cells. The H-score, which ranges from 0 to 300, gives the relative weight of staining in a given tumour sample. Regarding the histopathological examination, the number of mitoses was counted in the areas of tumours with the highest mitotic figures in 1 high-power field at the objective 40. The severity of fibrosis was evaluated on a classical toxicologic pathology scale ranging from 0 (absent) to 5 (severe).

The test system of the next data set is human and rat SST2. Also on record: method as in PMID 19910453. The note with it: ref [10]; cited from earlier work.
The mark [4] stands for this setting: 15 MBq, Tail uptake (injection site), 15 MBq x 4, 96 h after fourth injection, mean (SEM).
Where [5] appears, read: 15 MBq, Tumour uptake, 15 MBq, i.v. once a week x 4, 96 h after fourth injection, mean (SEM).
Setting [6] is: 15 MBq, compared with [^177Lu]Lu-DOTA-TATE at 15 or 30 MBq, 96 h.

Regarding `C[C@@H](O)[C@@H]1NC(=O)[C@H](CCCCN)NC(=O)[C@@H](Cc2ccc(NC(N)=O)cc2)NC(=O)[C@H](Cc2ccc(NC(=O)[C@@H]3CC(=O)NC(=O)N3)cc2)NC(=O)[C@H](NC(=O)[C@H](Cc2ccc(Cl)cc2)NC(=O)CN2CCN(CC(=O)O)CCN(CC(=O)O)CCN(CC(=O)O)CC2)CSSC[C@@H](C(=O)N[C@H](Cc2ccc(O)cc2)C(N)=O)NC1=O` [[^177Lu]Lu-satoreotide tetraxetan, metal not drawn] ({DOTA}-[Phe(4-Cl)][dC][Phe(4-NH2)](Dihydroorotyl(S))[dPhe(4-NHCONH2)]KTC[dY]-NH2; disulfide 2-7), the tissue uptake at 96 h in “in vivo” (15 MBq, Adrenals uptake) worked out at 0.7 %ID/g. Moreover, the tissue uptake at 96 h in the data set “in vivo” (15 MBq, Femur uptake) came out at 0.08 %ID/g. The tissue uptake at 96 h in “in vivo” (15 MBq, Kidneys uptake) amounted to 2.9 %ID/g. In “in vivo” (15 MBq, Spleen uptake), the tissue uptake at 96 h worked out at 0.072 %ID/g. The tissue uptake at 96 h in “in vivo” (setting [4]) was determined as 0.082 %ID/g. For the same compound, in “in vivo” (setting [5]), the tissue uptake at 96 h came out at 20 %ID/g. For the same compound, in data set [1] (15 MBq x 4), the Tumour radioactivity uptake was 3.5 MBq/g, the Femur radioactivity uptake is given as 0.014 MBq/g, the Spleen radioactivity uptake amounted to 0.013 MBq/g and the Adrenals radioactivity uptake is recorded as 0.12 MBq/g. In data set [1] (15 MBq x 4), the Kidneys radioactivity uptake came to 0.51 MBq/g and the Tail radioactivity uptake is on record as 0.015 MBq/g. Further, in data set [1] (setting [6]), the “Mean femur radioactivity uptake versus [^177Lu]Lu-DOTA-TATE” value is given as “two times higher”, the “Mean kidney radioactivity uptake versus [^177Lu]Lu-DOTA-TATE” value was “up to eight times higher” and the “Mean tumour radioactivity uptake versus [^177Lu]Lu-DOTA-TATE” value is “up to three times higher; also recorded: approximately three times higher tumour uptake”. In addition, the “Correlation of radioactivity uptake with SST2 expression levels in organs” value in data set [1] (15 MBq) is reported as “overall well-correlated with SST2 expression levels in different organs, except in the kidneys”. For the same compound, in the data set with kidney, the “Renal uptake and potential renal toxicity” value is given as “limited”. In data set [2], this compound displayed a Kd of 88 ± 10 pM. Also, the Safety profile result in the data set on SST2-positive NETs is “manageable safety profile”. Also, the “Bone marrow, myeloid/erythroid ratio, mean score” value in data set [3] (15 MBq x 4, 96 h, vehicle 2.3) is recorded as 3.0. Further, in data set [3] (15 MBq x 4, 96 h), the “Spleen, extramedullary haematopoiesis, mean score” value came out at 2.3. For the same compound, the “Bone marrow, eosinophilic vacuolated cells, number of mice” value in data set [3] (15 MBq x 4, end of study, examined 11 (DOTATATE), 7 (satoreotide)) was “one animal”. Moreover, in data set [3] (15 MBq x 4, end of study, vehicle 1.2), the “Bone marrow, myeloid/erythroid ratio, mean score” value turned out to be 2.7.

As for `C[C@@H](O)[C@H](NC(=O)[C@@H]1CSSC[C@H](NC(=O)[C@@H](Cc2ccccc2)NC(=O)CN2CCN(CC(=O)O)CCN(CC(=O)O)CCN(CC(=O)O)CC2)C(=O)N[C@@H](Cc2ccc(O)cc2)C(=O)N[C@H](Cc2c[nH]c3ccccc23)C(=O)N[C@@H](CCCCN)C(=O)N[C@@H]([C@@H](C)O)C(=O)N1)C(=O)O` [[^177Lu]Lu-DOTA-TATE, metal not drawn], the tissue uptake at 96 h in “in vivo” (15 MBq, Adrenals uptake) was 0.59 %ID/g; in the data set “in vivo” (15 MBq, Femur uptake), 0.034 %ID/g; in “in vivo” (15 MBq, Kidneys uptake), 0.36 %ID/g; in the data set “in vivo” (15 MBq, Spleen uptake) it was 0.018 %ID/g; in the data set “in vivo” (setting [4]), 0.055 %ID/g; in “in vivo” (setting [5]), 5.6 %ID/g. Moreover, the tissue uptake at 96 h in “in vivo” (30 MBq, Adrenals uptake) was 0.6 %ID/g; in “in vivo” (30 MBq, Femur uptake), 0.022 %ID/g; in the data set “in vivo” (30 MBq, Kidneys uptake) it was 0.51 %ID/g; in the data set “in vivo” (30 MBq, Spleen uptake), 0.015 %ID/g; in “in vivo” (30 MBq, Tail uptake (injection site), 30 MBq x 4, 96 h after fourth injection, mean (SEM)) it was 0.042 %ID/g; in “in vivo” (30 MBq, Tumour uptake, 30 MBq, i.v. once a week x 4, 96 h after fourth injection, mean (SEM)), 5.8 %ID/g. Also, the figures for the Tumour radioactivity uptake in data set [1] (15 MBq x 4) and in data set [1] (30 MBq x 4) were 1.0 MBq/g and 2.2 MBq/g, respectively. For the same compound, the Femur radioactivity uptake in data set [1] (15 MBq x 4) is 0.006 MBq/g; in data set [1] (30 MBq x 4) it was 0.008 MBq/g. In addition, the Spleen radioactivity uptake turned out to be 0.0032 MBq/g in data set [1] (15 MBq x 4) and 0.006 MBq/g in data set [1] (30 MBq x 4). Further, the Adrenals radioactivity uptake was found to be 0.11 MBq/g in data set [1] (15 MBq x 4) and 0.23 MBq/g in data set [1] (30 MBq x 4). Also, the Kidneys radioactivity uptake in data set [1] (15 MBq x 4) was 0.066 MBq/g; in data set [1] (30 MBq x 4), 0.20 MBq/g. Besides, the Tail radioactivity uptake in data set [1] (15 MBq x 4) turned out to be 0.01 MBq/g; in data set [1] (30 MBq x 4), 0.016 MBq/g. The “Correlation of radioactivity uptake with SST2 expression levels in organs” value in data set [1] (15 MBq) is given as “overall well-correlated with SST2 expression levels in different organs, except in the kidneys”; in data set [1] (30 MBq), “overall well-correlated with SST2 expression levels in different organs, except in the kidneys”. In addition, in data set [2], the Kd stood at 480 ± 200 pM. Besides, in data set [3] (30 MBq x 4, 96 h), the “Spleen, extramedullary haematopoiesis, mean score” value is given as 2.3. Moreover, in data set [3] (30 MBq x 4, end of study, 11 mice examined), the “Bone marrow, eosinophilic vacuolated cells, number of mice” value is given as “one animal”.

Pasireotide: the “Species difference human versus rat SST2” value in the data set with human and rat SST2 is “species dissimilarities between human and rat SST2”.
